Measurements as given in a protein production outcome set (Wang et al. 2014).

Assay: label from the status in PepcDB records
For “MCYAASKLWNVCNYERHHYKELGLEKYPDWYYQKKAHKGDLWYRQLPSQTAQETCKQLDKAWKSFYVLKKTGGIKEPNPPRFKQDNIPVTYMQMGIRHEKGSDQLRLSLPRDLKSYMEETYGIHEKFLYLENKIFRNMDHIKQLRIYPPENGTCELIVIYEIEEPEQLSQNGHYLSVDLGLHNLMTCYDSGNGRTFILGRKYLSLERYFHKEIARVQSVWYAQQSERGIKYPKSSKHIQRLYRKKQNAVKDYLHKTTRWIAEYCRKEDIRCVVVGDIRNIRKEKDMGHKTNQKFHGLPYNRLYIMLEYKLKLYGIQLIKQEESYTSQCSPLSPEVSKRHAEASNRKERGMYITDGVRFNADAVGAFNILRKHLSVSGKQKEMSVTGLKTPEIIKVAA”, the protein production was “failed”. In the case of “MDAAKRGFPPVVDAKTCVLILGSLPGDASLAAGQYYGHPRNAFWRLMEGVIDAPLVVRAYEDRLVTLLAHGVGLWDVIETARRPGSLDAAIREPAANDLMALIDTLPALRLVAFNGGTAGRLGGRLIGTRVSTLALPSSSPAYAARTFAQKAAAWAALRDGLADTYSRPHPEPVEGPGRPPRRGRPAPRQP”, the protein production is reported as “failed”. With “MDAAVIVPAYNEAESLARCLAPFESQPVELVVVVGGDDGTEQVARDTPFVDTVVRCDEGGAGIARNRGAAAATAPILLFTDADTVVPEDWVRLHLRHYADDEVIGVGGPARPLEDSLKHRVLFKLLSDYWYRVSWPLGFVQQPGFNCSFRADAFKAAGGFNEDIPFMEDTELSLRMKDYGRIVYDADSCVATSARREADEGYVSLFAKYVRGYANHYILRREFDADYFLEHHHHHH” the protein production was “failed”. For “MDAEEKDGVLYFEGQVLTGAKVNSVIDHTLLDFGCEAEETIVSCGEDTSNPHGTTEGPLRANAPIILDIFPRSKKKRYFADMTRTVLRGEASEKLKEMYETVLVAQQKALEMVKPGIHSSEIHRAVCDLFEARGYHTYRSGSKAGFTHSTGHGVGLDIHELPSVGESGVLLETGNVITIEPGLYYPGIGGIRLEDMVLVTKTGYENFTGLEKKFVLKSFYNLEHHHHHH”, the protein production was “not failed”. In the case of “MDAEGNLFMSWRDGGTFGIARINEQQNIVTPLIEADAANRILYANGLTVDRATGMLTAAHESVKEVTFTFDPREAWYPRQRNIKYSQSDLNSIVDADRYKNFVTFCPYDGYLYTRYRDGKIAKIDPNTFEGHIIHQGPSGSQYGQAINPAKPWLLYITLHSNAPTAYRQGISVLDLRDPDGTGGFKRLNAPGGSAFRDGPIEDALFNYPKDIKFDNDGNMFVADYGNHCIRMISADNIVTTVAGQPGVAGYKDGGPVESLFKNPWGVAVNEQGDIYIADWGNARIRKLVIELEHHHHHH”, the protein production is reported as “failed”. For “MDAMEFFRQSAGQWRSQRTTHHLAFRRAENGDSSISVEALEKDDPRVIEICTMHEVDPATAIGGAYVSWQGSMEWDRDAEGHSGTTVFALVPDDASGRSGQLLRERGYAEIVPVIGRFELDENNNLNLVTDYETMSAVEQFWFMGPSLRLRASTVTRFGGLSTAAFCAEVRQTEAAADSEPLKADQLYSSLGW”, the protein production was “failed”. With “MDAPTSQRYTAKARWLHWIMAALIVLAYTLILSRTQFGKGSEYRTLVVQSHFWVGIVVLVLAFFRVAERRRQRPPGITPPLEGVLRAAATLSHYALYAFLFTQPLLGLLTVMVEKGSLPIPLTDLQIPWPLPISDHTAEYFEDLHKLLGKIFYYVIGLHVVAALWHHIVRKDNTLKRML” the protein production was “failed”. In the case of “MDARIVNALIGSVYETIRDVLGIEPKTGKPSTVSHIEIPHSLVTVIGITGGIEGSLIYSFSSETALKVVSAMMGGMEYNQLDELALSAIGELGNMTAGKLAMKLEHLGKHVDITPPTVVSGRDLKIKSFGVILKLPISVFSEEDFDLHLSVKSGG”, the protein production is reported as “not failed”. In the case of “MDCCTENACSKPDDDILDIPLDDPGANAAAAKIQASFRGHMARKKIKSGERGRKGPGPGGPGGAGVARGGAGGGPSGD”, the protein production is reported as “failed”. In the case of “MDDGQDAGRSGHRKAATAREGAEAMKPETPGGTAALAKGLTLLDMVADAPEPPRFAELLRASGLPKPTFARILRTLIAYGLVRQDEARGTYVLGQRFLEMSHKVWESFDLVSAATPELERLAAELGETVALCRLDGTMTQYLAERSPNGLSVRVEVGRRVPLHCTAPGKALLAFQDPAVGRALLDRLTLDLQTAKTITTLDALQADLTLTRARGYSISYEEHLPGVNSVAAPVMGRDNTPMGVLVALGPSSRLDSSNIHPAGRELIAAARRITGAAGAVAISSRPRPRSATGRPSAELSCILPWGAQLGESPVWHEGEDALYWVDILHPAVHRFDPATGRNETCETGKLVSAVIPVTGGRLLVASQDGVEWLDFASGRLTPFVSPEAGIADNRLNDAKCGPDGAIWVGSMRIDASKPTGALYRINANGASERKEGGIIVSNGLGWSPDGRTFYFVDTVPGLIHAYDCDPATGALSQRREFARIPVADGRPDGLAVDAEGGVWCAIWDGWCVRRYLPNGKLDQVIDMPVPRPSSIAFGGPDLSTLFITSARTRLPASTLADAPLSGGLFSCRPGISGARIAMFEG”, the protein production is reported as “failed”. For “MDDKAFTKELDQWVEQLNECKQLNENQVRTLCEKAKEILTKESNVQEVRCPVTVCGDVHGQFHDLMELFRIGGKSPDTNYLFMGDYVDRGYYSVETVTLLVALKVRYPERITILRGNHESRQITQVYGFYDECLRKYGNANVWKYFTDLFDYLPLTALVDGQIFCLHGGLSPSIDTLDHIRALDRLQEVPHEGPMCDLLWSDPDDRGGWGISPRGAGYTFGQDISETFNHANGLTLVSRAHQLVMEGYNWCHDRNVVTIFSAPNYCYRCGNQAAIMELDDTLKYSFLQFDPAPRRGEPHVTRRTPDYFL”, the protein production was “failed”. With “MDDNTPDLFAEPAAPEGDFLTLGRYAERQYLDYAVSVVKGRALPDVSDGQKPVQRRILYAMNEMGLGDNAKPVKSARVVGDVLGKYHPHGDQSAYDALVRLAQDFSMRYPLIDGQGNFGSRDGDGAAAMRYTEARLTPIAKLLLDEIDEGTVDFMPNYDGSFDEPKLLPARLPFVLLNGASGIAVGLATEIPSHNLREVAAAAVALIRHPALPHAELMQLVPGPDFPGGGQIISSDAEISAAYETGRGSLKVRARWKIEDLARGQWQLVVTELPPNTSCQKVLEEIEELTNPKLKAGKKTLTQEQINTKKTMLDLLDAVRDESGKDAPVRLVFEPKTRTIDQTEFVNSLLAHTSLESNAALNLVMIGEDGRPAQKGLASILGEWVRFRQATVTRRCRHRLGKVNDRIHILEGRMIVFLNIDEVIRIIREADEPKAALISAFGLTERQADDILEIRLRQLARLEKIKIEKELEELRAEKAKLEELLANESAMKRLMIKEIEADAKQYGDERRTLIQQEKRATFEAKVVDEPVTVVVSQKGWVRALKGHGLDPASFSFKAGDGLYAAFQCRTPDTLIAWGSTGRVYSVAVQVLPGGRGDGVPVTSLIELESGSHLLHYFAAPAEQPLLLASSNGFGFIAKIGDMVSRVKAGKSFMTIDTGAAPLAPMPVLPDASQVACLSSGGRLLVFGMDEMKTLSGGGRGVILMALDAKETLVQALAIDAAGVVLTGTGRGGKAQEEALAGGALEPHVGKRARKGRAPDTRLKVSGLRPVLG” the protein production was “failed”. For “MDDRTEYDVYTDGSYVNGQYAWAYAFVKDGKVHYEDADVGKNPAAATMRNVAGEIAAALYAVKKASQLGVKIRILHDYAGIAFWATGEWKAKNEFTQAYAKLMNQYRGIYSFEKVKAHSGNEFNDYVDMKAKSALGIRDLEHHHHHH”, the protein production was “not failed”. For “MDDSAGHSGEDNALMEKHFMAAVVVTFQSGSTIDVCLARLRAAKDVAEICVVDNGSHDETLNIVQCHALADPRVRFVANLDNPGFAAACNQGAADVSAPWLVFVNPDLMVEPEILAQLRAYAEVYVPALLGVEQVDEHGYPDPAVRRRDPDFAAMLRNPRRGTQLAIPADPTQSLQLVPALSGALMLMSRLLFERLGGWDVGYRLHAEDLDLCRRARQVGATVAVVNTLQVVHLRGVSSRSRPFFVEWHKHCGLWRYFCKFEAPQRGLPVRLGVWLAIWSHAFFQCLGVWLRRR”, the protein production was “failed”. With “MDDSYMMVPMRRKRSQCDLAQMVQAIEEYDGSTQCEIDIDECASHPCKNGATCIDQPGNYFCQCVPPFKVFNFDGISSTSVQEFYHCEFGPCKASDSCENGAVRGEKMDLEMFPLEFRCQCASFSGPRCEINVNECSSSPCLHGYCYDMVDGFSCLCNPGYVGIRCEQDIDDCILNACEHNSTCKDLHLSYQCVCLSDWEGNFCEQESNECKMNPCKNNSTCTDLYKSYRCECTSGWTGQNCSEEINECDSDPCMNGGLCHESTIPGQFVCLCPPLYTGQFCHQRYNLCDLLHNPCRNNSTCLALVDANQHCICREEFEGKNCEIDVKDCLFLSCQDYGDCEDMVNNFRPGFSGSLCEIEINECSSEPCKNNGTCVDLTNRFFCNCEPEYHGPFCELDVNKCKISPCLDEENCVYRTDGYNCLCAPGYTGINCEINLDECLSEPCLHDGVCIDGINHYTCDCKSGFFGTHCETNANDCLSNPCLHGRCTELINEYPCSCDADGTSTQCKIKINDCTSIPCMNEGFCQKSAHGFTCICPRGYTGAYCEKSIDNCAEPELNSVICLNGGICVDGPGHTFDCRKACLYNCDNAKTRQESKELNKQQD” the protein production was “failed”. In the case of “MDEAYKMRCDWYHHGELVSGGESESKFSQLNDEVVELYQAAEYLDEEFAGMVHLGEIVERDDKKEDEFLAKLADAETPLYPSCFNHSKLSAIMSLFTLKTKNGWSDKSHNDLLETLPEMLLEDNVLHSSLYEVKKFLKSFDMG”, the protein production is reported as “failed”. In the case of “MDEGCVIAFLVWVDNGECILERQSAPDELNLFDIILVAKEQWRLLLAVPLLLAVLAAGISLAMPDQYTAKALVNIPAPVGAAGGVNIVQSTSLLEQAVEKFQLQRYYAVEDNRSALLALSNVVKTTAGKDGLLEISATDRNAEQAARLGNYLADLTRQHILDGNLTEQSKRYFVLQKRLDVESEQVSQLSRKVAQLVPDQEAALGGEGMQLISGFATLEAQLAFQNVQAAGNSGAVSNLQSSVMQLRASLELANPKVRQMSNEQLAGLRDLYFHRALAAELQRQVSLAKSLADQDVQIVLKASAPLEKSGPKRTLIVLLAGLVGLMLAIALIVCKRQWRELSNRFAKNTAA”, the protein production is reported as “failed”. In the case of “MDEGRRINIPKIGAVKCKFHRLLEGTPKTLQIVLDVNEWYAVYTCEVPVQPLPETGSTVGVDVGTRYFAITSDGEFVHNPRHLGSALKKLRVQQRTVSRRKKGGNRRRKAVGQVAKTHRKIRRSRQDFHHKVAVKLVRENDLIAHEDLRVSNVVKSNLARSISDVGWSAFFDILRGKAESAGRVVVRVPPQYTSQRCHACGHTCRENRNNEVFKCVSCGHEDHADWNAAKNILGRAVPSGVNGSGVSHAVA”, the protein production is reported as “failed”. For “MDEILTNTATPEVGGVAQLSPSAARTKARIALAVMLVPLFGTLEAIRLWFTGQVHALDFILFAVFYAVQMFGVSMGYHRYLAHRAFKTSRLMSSLMLIAGCMAAQGPILFWVTTHRRHHTYSDQHGDPHSPNLMGQSRWQRAKGLWHAHMPWMLAPDMSSWNFFAPDILRDRRLFFYNQTYLFWVALGVILPGVIGGLVSQSWSGAWSGLIFGGLARIFVANQAAWCVGSICHRYGARPFVTHDQSTNNWIVAFLTFGEGLQNNHHAFPAWYRHGVHWWEPDLSGWTLALMGKLRLVSDLRSPSQAMIDKVRKRQASS”, the protein production was “failed”. In the case of “MDEKEKNLNENSENESTPKREVEDTLHTPESAQPVQETPIVEGVTPEGEKFAGATEDAAEASSTNAFFEEASNKESEPARPAPGPRRAGTTGGGAVPPNRVNNGGSGNGNGEPPKRGKHFIGYFLTALIGVIIGGLIIFFVAWDNGDNADTTSNSNNKATKVEKVSVDTTSDVTKAVDKVQDAVVSVLNYQSSSSLDGTTTSEQEASSGSGVIYKKANGKAYIVTNNHVVADANKLEVTFTNGKKSEAKLLGTDEWNDLAVLEIDDKNVTTVAAFGDSDSLKLGEPAIAIGSPLGTEFSGSVTQGIISGLNRAVPVDTNGDGTEDWEADVIQTDAAINPGNSGGALINIEGQVIGINSMKISMENVEGISFAIPSNTVEPIIEQLETKGEVERPSLGVSLRDVDTIPETQQKNILKLPDSVDYGAMVQQVVSGSAADKAGLKQYDVIVELNGQKVTNSMTLRKILYGNDVKIGDKVKVKYYRDGKEKSTDIKLEAAKTTT”, the protein production is reported as “failed”. For “MDELELRIRKAEKLVQDAKKEFEMGLYERCCSTAYYAMFHAAKAMLLGYGRDSKTHRGTIYLIWECREELGLSDDDCSKLSRAFDLREESDYGIYKEVSKDLAIKILKDAEIFVQKAKNAVNKNR”, the protein production was “not failed”.
